# Literature values in publication PMC8604983, “A glucagon analogue decreases body weight in mice via signalling in the liver” (Scientific Reports, 2021).
# Settings: in rodents
# Method: Native glucagon has a half-life of approximately 2 min in rodents. To study the effects of sustained GCGR activation, we developed a glucagon analogue (GCG104) through modification of OXM with the aim of reducing its GLP-1R activity and decreasing its rate of clearance. Select amino acid substitutions were made and a C18 lipidated tail was added (Fig. 1a).
substance,measurement,value
glucagon [Native glucagon],half-life,approximately 2 min
